Measurements taken from patent publication US20240026032A1 (Alexion, published 2024).

T1: Human DLAT recombinant protein (ProSpec, Catalog # ENZ-082) (human, UniProt P10515 87-647, limits assumed)
T1 construct: also called DLAT antigen; Dihydrolipoamide Acetyltransferase
T1 sequence (looked up): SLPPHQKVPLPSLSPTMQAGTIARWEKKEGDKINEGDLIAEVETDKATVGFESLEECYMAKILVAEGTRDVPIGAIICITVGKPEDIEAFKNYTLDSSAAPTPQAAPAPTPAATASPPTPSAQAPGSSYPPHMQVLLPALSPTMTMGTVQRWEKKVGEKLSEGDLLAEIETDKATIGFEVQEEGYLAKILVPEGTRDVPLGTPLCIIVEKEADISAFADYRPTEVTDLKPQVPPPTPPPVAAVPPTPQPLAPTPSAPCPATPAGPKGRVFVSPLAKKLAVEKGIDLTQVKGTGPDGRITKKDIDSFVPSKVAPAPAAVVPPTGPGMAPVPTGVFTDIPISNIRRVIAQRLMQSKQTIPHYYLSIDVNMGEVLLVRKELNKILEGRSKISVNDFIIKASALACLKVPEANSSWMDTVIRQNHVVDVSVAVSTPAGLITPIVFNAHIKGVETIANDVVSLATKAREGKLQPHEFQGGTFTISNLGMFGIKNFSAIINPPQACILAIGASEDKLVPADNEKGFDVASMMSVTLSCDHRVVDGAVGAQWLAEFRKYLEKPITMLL


Experiments:
[1] = target: T2, Programmed Death 1 (PD-1) Fc chimera (R&D Systems, Catalog # 1086-PD-050) (human, UniProt Q15116 25-167); assay: BLI (Octet), PD-1 Fc captured on anti-human Fc tips, TPP-994 at 10 µg/mL in PBS as analyte
T2 construct: Bought reagent; not shown: Fc part of the bought chimera (captured by anti-human Fc tips)
Procedure: (§1) Final dissociation in PBS was performed in the last step on the Bio-Layer Interferometry (BLI) data.

[2] = target: T2, Programmed Death 1 (PD-1) Fc chimera …; assay: BLI (Octet), PD-1 Fc captured on anti-human Fc tips, TPP-995 at 10 µg/mL in PBS as analyte
Procedure: as §1

[3] = target: T2, Programmed Death 1 (PD-1) Fc chimera …; assay: BLI (Octet Red), TPP-986 loaded on anti-human IgG Fc tips, DLAT 10 µg/mL bound first, then PD-1 Fc 12.5 µg/mL
Procedure: (§2) Antibodies and antibody fusions were diluted to 16 μg/mL in PBS and loaded onto anti-human IgG Fc tips (ForteBio, Catalog # 18-5064). Human DLAT recombinant protein (ProSpec, Catalog # ENZ-082) was diluted into PBS to 10 μg/mL. […] Finally, a dissociation step in PBS was performed to determine dissociation from the bound antibodies.

[4] = target: T1, Human DLAT recombinant protein …; assay: BIAcore, AntiFc_TPP992_DLAT, kinetics from single concentration curve (12.5nM DLAT)
[5] = target: T2, Programmed Death 1 (PD-1) Fc chimera …; assay: BLI (Octet Red), TPP-992 loaded on anti-human IgG Fc tips, DLAT 10 µg/mL bound first, then PD-1 Fc 12.5 µg/mL
Procedure: as §2

[6] = target: T1, Human DLAT recombinant protein …; assay: BIAcore kinetics, antibody captured on anti-mouse surface, DLAT (Prospec) as analyte

T2 sequence (Q15116 25-167, change not shown): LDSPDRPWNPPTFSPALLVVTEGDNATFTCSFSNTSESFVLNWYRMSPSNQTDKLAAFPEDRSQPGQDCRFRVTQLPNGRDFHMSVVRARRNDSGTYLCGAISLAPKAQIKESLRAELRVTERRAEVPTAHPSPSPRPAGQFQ

| Binder | Kd [6] [pM] | koff [6] [s⁻¹] | kon [6] [M⁻¹ s⁻¹] | also measured |
| --- | --- | --- | --- | --- |
| TPP-994 (PD2 with PD-L1 fused to the C-terminus of the heavy chain) (Fab, Fab fusion with the human PD-L1 variable-like domain) heavy: EVQLVESGGGLVKPGGSLRLSCAASGFTFGSYSMTWVRQAPGKGLEWVSFISTVSTYIYYPDSVKGRFTISRDNAKNSLYLQMNSLRAEDTAVYYCARVSGRGSAARDGEKGTYYYYMDVWGKGTTVTVSSASTKGPSVFPLAPSSKSTSGGTAALGCLVKDYFPEPVTVSWNSGALTSGVHTFPAVLQSSGLYSLSSVVTVPSSSLGTQTYICNVNHKPSNTKVDKRVEPKSCGGSSRSSSSGGGGSGGGGFTVTVPKDLYVVEYGSNMTIECKFPVEKQLDLAALIVYWEMEDKNIIQFVHGEEDLKVQHSSYRQRARLLKDQLSLGNAALQITDVKLQDAGVYRCMISYGGADYKRITVKVNA light: SSELTQDPAVSVALGQTVTITCQGDSLRSYYASWYQQKPGQAPVLVIFGKNNRPSGIPDRFSGSRSGNTASLTITGAQAEDEADYFCDSRDSSANHWVFGGGTKLTVLQPKAAPSVTLFPPSSEELQANKATLVCLISDFYPGAVTVAWKADSSPVKAGVETTTPSKQSNNKYAASSYLSLTPEQWKSHKSYSCQVTHEGSTVEKTVAPTECS | – | – | – | binding result [1]: binds |
| TPP-995 (PD2 with PD-L1 fused to the N-terminus of the heavy chain) (Fab, Fab fusion with the human PD-L1 variable-like domain) heavy: FTVTVPKDLYVVEYGSNMTIECKFPVEKQLDLAALIVYWEMEDKNIIQFVHGEEDLKVQHSSYRQRARLLKDQLSLGNAALQITDVKLQDAGVYRCMISYGGADYKRITVKVNAGGSSRSSSSGGGGSGGGGEVQLVESGGGLVKPGGSLRLSCAASGFTFGSYSMTWVRQAPGKGLEWVSFISTVSTYIYYPDSVKGRFTISRDNAKNSLYLQMNSLRAEDTAVYYCARVSGRGSAARDGEKGTYYYYMDVWGKGTTVTVSSASTKGPSVFPLAPSSKSTSGGTAALGCLVKDYFPEPVTVSWNSGALTSGVHTFPAVLQSSGLYSLSSVVTVPSSSLGTQTYICNVNHKPSNTKVDKRVEPKSC light: SSELTQDPAVSVALGQTVTITCQGDSLRSYYASWYQQKPGQAPVLVIFGKNNRPSGIPDRFSGSRSGNTASLTITGAQAEDEADYFCDSRDSSANHWVFGGGTKLTVLQPKAAPSVTLFPPSSEELQANKATLVCLISDFYPGAVTVAWKADSSPVKAGVETTTPSKQSNNKYAASSYLSLTPEQWKSHKSYSCQVTHEGSTVEKTVAPTECS | – | – | – | binding result [2]: binds |
| TPP-986, human IgG2/4 PD5 antibody, N-terminus PD-L1 HC (antibody, Antibody fused with the human PD-L1 variable-like domain) heavy: FTVTVPKDLYVVEYGSNMTIECKFPVEKQLDLAALIVYWEMEDKNIIQFVHGEEDLKVQHSSYRQRARLLKDQLSLGNAALQITDVKLQDAGVYRCMISYGGADYKRITVKVNAGGSSRSSSSGGGGSGGGGQLQLQESGPGLVKPSETLSLTCIVSGGSISRNSYYWGWIRQPPGKGLEWIGSIVYSGSTYHQPSLKSRVTIFLDTSKNQFFLKLTSVTAADTAVYYCARGTRATTWPPPIGYWGQGTLVTVSSASTKGPSVFPLAPCSRSTSESTAALGCLVKDYFPEPVTVSWNSGALTSGVHTFPAVLQSSGLYSLSSVVTVPSSNFGTQTYTCNVDHKPSNTKVDKTVERKCCVECPPCPAPPVAGPSVFLFPPKPKDTLMISRTPEVTCVVVDVSQEDPEVQFNWYVDGVEVHNAKTKPREEQFNSTYRVVSVLTVLHQDWLNGKEYKCKVSNKGLPSSIEKTISKAKGQPREPQVYTLPPSQEEMTKNQVSLTCLVKGFYPSDIAVEWESNGQPENNYKTTPPVLDSDGSFFLYSRLTVDKSRWQEGNVFSCSVMHEALHNHYTQKSLSLSLGK light: QSVLTQPPSVSAAPGQKVTVSCFGSSSNIGNYFASWYQQLPGAAPRLLIYGNNERPSGIPDRFSGSKSGTSATLVITGLQTGDEAAYYCATWDSSLSAVVFGGGTKLTVLGQPKANPTVTLFPPSSEELQANKATLVCLISDFYPGAVTVAWKADGSPVKAGVETTKPSKQSNNKYAASSYLSLTPEQWKSHRSYSCQVTHEGSTVEKTVAPTECS | – | – | – | binding result [3]: binds |
| TPP-992, human IgG2/4 PD5 antibody, N-terminus PD-L1 LC (antibody, Antibody fused with the human PD-L1 variable-like domain) heavy: QLQLQESGPGLVKPSETLSLTCIVSGGSISRNSYYWGWIRQPPGKGLEWIGSIVYSGSTYHQPSLKSRVTIFLDTSKNQFFLKLTSVTAADTAVYYCARGTRATTWPPPIGYWGQGTLVTVSSASTKGPSVFPLAPCSRSTSESTAALGCLVKDYFPEPVTVSWNSGALTSGVHTFPAVLQSSGLYSLSSVVTVPSSNFGTQTYTCNVDHKPSNTKVDKTVERKCCVECPPCPAPPVAGPSVFLFPPKPKDTLMISRTPEVTCVVVDVSQEDPEVQFNWYVDGVEVHNAKTKPREEQFNSTYRVVSVLTVLHQDWLNGKEYKCKVSNKGLPSSIEKTISKAKGQPREPQVYTLPPSQEEMTKNQVSLTCLVKGFYPSDIAVEWESNGQPENNYKTTPPVLDSDGSFFLYSRLTVDKSRWQEGNVFSCSVMHEALHNHYTQKSLSLSLGK light: FTVTVPKDLYVVEYGSNMTIECKFPVEKQLDLAALIVYWEMEDKNIIQFVHGEEDLKVQHSSYRQRARLLKDQLSLGNAALQITDVKLQDAGVYRCMISYGGADYKRITVKVNAGGSSRSSSSGGGGSGGGGQSVLTQPPSVSAAPGQKVTVSCFGSSSNIGNYFASWYQQLPGAAPRLLIYGNNERPSGIPDRFSGSKSGTSATLVITGLQTGDEAAYYCATWDSSLSAVVFGGGTKLTVLGQPKANPTVTLFPPSSEELQANKATLVCLISDFYPGAVTVAWKADGSPVKAGVETTKPSKQSNNKYAASSYLSLTPEQWKSHRSYSCQVTHEGSTVEKTVAPTECS | – | – | – | Kd [4]: 184 pM; koff [4]: 0.000238 s⁻¹; kon [4]: 1.29e+06 M⁻¹ s⁻¹; binding result [5]: binds |
| TPP-1003 (mIgG1 PD2 Ab) (antibody, V domains shown, also called mouse IgG1 chimera anti-DLAT antibody PD2) VH: EVQLVESGGGLVKPGGSLRLSCAASGFTFGSYSMTWVRQAPGKGLEWVSFISTVSTYIYYPDSVKGRFTISRDNAKNSLYLQMNSLRAEDTAVYYCARVSGRGSAARDGEKGTYYYYMDVWGKGTTVTVSS VL: SSELTQDPAVSVALGQTVTITCQGDSLRSYYASWYQQKPGQAPVLVIFGKNNRPSGIPDRFSGSRSGNTASLTITGAQAEDEADYFCDSRDSSANHWVFGGGTKLTVLQ | 242 | 4.68e-05 | 193000 | – |

Continued, in another order:

| Kd [6] [pM] | koff [6] [s⁻¹] | kon [6] [M⁻¹ s⁻¹] | Binder | also measured |
| --- | --- | --- | --- | --- |
| 526 | 1.94e-05 | 36900 | TPP-1004 (mIgG1 PD5 Ab) (antibody, also called murine IgG1 PD5; Mouse PD5) heavy: QLQLQESGPGLVKPSETLSLTCIVSGGSISRNSYYWGWIRQPPGKGLEWIGSIVYSGSTYHQPSLKSRVTIFLDTSKNQFFLKLTSVTAADTAVYYCARGTRATTWPPPIGYWGQGTLVTVSSAKTTPPSVYPLAPGSAAQTNSMVTLGCLVKGYFPEPVTVTWNSGSLSSGVHTFPAVLQSDLYTLSSSVTVPSSTWPSQTVTCNVAHPASSTKVDKKIVPRDCGCKPCICTVPEVSSVFIFPPKPKDVLTITLTPKVTCVVVDISKDDPEVQFSWFVDDVEVHTAQTKPREEQINSTFRSVSELPIMHQDWLNGKEFKCRVNSAAFPAPIEKTISKTKGRPKAPQVYTIPPPKEQMAKDKVSLTCMITNFFPEDITVEWQWNGQPAENYKNTQPIMDTDGSYFVYSKLNVQKSNWEAGNTFTCSVLHEGLHNHHTEKSLSHSPGK light: QSVLTQPPSVSAAPGQKVTVSCFGSSSNIGNYFASWYQQLPGAAPRLLIYGNNERPSGIPDRFSGSKSGTSATLVITGLQTGDEAAYYCATWDSSLSAVVFGGGTKLTVLGQPRADAAPTVSIFPPSSEQLTSGGASVVCFLNNFYPKDINVKWKIDGSERQNGVLNSWTDQDSKDSTYSMSSTLTLTKDEYERHNSYTCEATHKTSTSPIVKSFNRNEC | – |
| 1720 | 0.000149 | 86300 | TPP-1005 (mIgG1 DWZ Ab) (antibody, V domains shown, also called murine IgG1 DWZ) VH: EVQLLESGGDVVQPGGSLRLSCVASGFTLTNYVTAWVRRRPGKGLEWISGMTHGAVATYYSDSVRGRFSSSRDTSRSTLYLQMNDLTVEDTAIYYCAKSLHRSGTSLSYWGQGTLVTVSS VL: QSVLTQPPSASGTPGQNINISCSGTTSNIGGSNVDWYQHVPGTAPKLFIHSNNQRPSGVPARFSASKSGTSASLAISGLQSEDEADYYCATWDVRLLAYVFGSATEVTVLR | – |
